Laboratory results reported in the supplement of paper PMC10567573.

B1: GMCL1 (parent)
chain: FCYCAGSHKRKRSSGSFCYCHPDS

Variants of: B1
Assay: protein stability index of a GFP-peptide fusion (GPS, HEK-293T) (PSI 1-6); higher = more stable
Settings: c terminus: a fixed tail appended
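Further: lentivirally expressed fusions sorted by FACS into six bins by GFP to DsRed ratio, PSI derived from sequencing read proportions per bin multiplied by bin number.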

Row | Variant | protein stability index
1 | FCYCAGSHKRKRSSGSHCYCHPDS [F17H] | 2.46
2 | FCYCAGSHKRKRSSGSWCYCHPDS [F17W] | 1.9
3 | FCYCAGSHKRKRSSGSDCYCHPDS [F17D] | 2.84
4 | FCYCAGSHKRKRSSGSFCVCHPDS [Y19V] | 3.03
5 | FCYCAGSHKRKRSSGSFCGCHPDS [Y19G] | 2.52
6 | FCYCAGSHKRKRSSGSFCDCHPDS [Y19D] | 2.9
7 | FCYCAGSHKRKRSSGSFCTCHPDS [Y19T] | 3.6
8 | FCYCAGSHKRKRSSGSFCQCHPDS [Y19Q] | 3.03
9 | FHYCAGSHKRKRSSGSFCYCHPDS [C2H] | 1.81
10 | FGYCAGSHKRKRSSGSFCYCHPDS [C2G] | 2.7
11 | FFYCAGSHKRKRSSGSFCYCHPDS [C2F] | 2.25
12 | FNYCAGSHKRKRSSGSFCYCHPDS [C2N] | 1.27
13 | FPYCAGSHKRKRSSGSFCYCHPDS [C2P] | 1.53
14 | FCYCAGSHNRKRSSGSFCYCHPDS [K9N] | 2.05
15 | FCYCAGSHKRKGSSGSFCYCHPDS [R12G] | 1.38
16 | FCYCAGSHKRKCSSGSFCYCHPDS [R12C] | 1.85
17 | FCYCAGSHKRKYSSGSFCYCHPDS [R12Y] | 2.56
18 | FCYCAGSHKRKNSSGSFCYCHPDS [R12N] | 2.01
19 | FCYCAGSHKRKDSSGSFCYCHPDS [R12D] | 2.06
20 | FCYCAGSHKRKVSSGSFCYCHPDS [R12V] | 1.89
21 | FCYCAGSHKRKLSSGSFCYCHPDS [R12L] | 1.63
22 | FCRCAGSHKRKRSSGSFCYCHPDS [Y3R] | 2.3
23 | FCMCAGSHKRKRSSGSFCYCHPDS [Y3M] | 2.02
24 | FCECAGSHKRKRSSGSFCYCHPDS [Y3E] | 2.5

Row | Variant | protein stability index
25 | FCHCAGSHKRKRSSGSFCYCHPDS [Y3H] | 1.81
26 | FCYCAGSHKRKRSDGSFCYCHPDS [S14D] | 2.18
27 | FCYCAGSHKRKRSVGSFCYCHPDS [S14V] | 1.89
28 | FCYCAGSHKRKRSFGSFCYCHPDS [S14F] | 2.35
29 | FCYCAGSHKRKRSAGSFCYCHPDS [S14A] | 2.2
30 | FCYCAGSHKRKRSSGSFRYCHPDS [C18R] | 1.63
31 | FCYCAGSHKRKRSSGSFGYCHPDS [C18G] | 2.18
32 | FCYCAGSHKRKRSSGSFMYCHPDS [C18M] | 2.11
33 | FCYCAGSHKRKRSSGSFVYCHPDS [C18V] | 1.83
34 | FCYCAGSHKRKRSSGSFCYCHPDL [S24L] | 1.91
35 | FCYCAGSHKRKRSSGSFCYCHPDQ [S24Q] | 2.9
36 | FCYCAGSHKRKRSSGSFCYCHPDV [S24V] | 2.12
37 | FCYCAGSHKRKRSSGSFCYCHPDE [S24E] | 2.51
38 | FCYCAGSHKRKRSSGSFCYCHPDY [S24Y] | 1.84
39 | FCYCAGSHKRKRSSGSFCYCHPDG [S24G] | 2.46
40 | FCYCAGSHKRKRSSGSFCYCHPDN [S24N] | 2.12
41 | FCYCAGSHKRKRSSGSFCYCHPDP [S24P] | 1.88
42 | FCYCAGSHKRKRSSGSFCYCHPDM [S24M] | 1.78
43 | FCYCAGSHKHKRSSGSFCYCHPDS [R10H] | 1.68
44 | FCYCAGSHKTKRSSGSFCYCHPDS [R10T] | 2.27
45 | FCYCAGSHKLKRSSGSFCYCHPDS [R10L] | 1.99
46 | FCYCAGSHKPKRSSGSFCYCHPDS [R10P] | 1.9
47 | FCYCAGSHKSKRSSGSFCYCHPDS [R10S] | 1.82
48 | FCYCAGSHKNKRSSGSFCYCHPDS [R10N] | 2.24

Row | Variant | protein stability index
49 | FCYCAGSPKRKRSSGSFCYCHPDS [H8P] | 1.94
50 | FCYCAGSLKRKRSSGSFCYCHPDS [H8L] | 1.1
51 | FCYCAGSEKRKRSSGSFCYCHPDS [H8E] | 2.1
52 | FCYCAGSYKRKRSSGSFCYCHPDS [H8Y] | 2.57
53 | FCYCAGSKKRKRSSGSFCYCHPDS [H8K] | 1.99
54 | FCYCIGSHKRKRSSGSFCYCHPDS [A5I] | 3.03
55 | FCYCCGSHKRKRSSGSFCYCHPDS [A5C] | 1.65
56 | FCYCSGSHKRKRSSGSFCYCHPDS [A5S] | 2
57 | FCYCAGSHKRKRSSGSFCYCHPRS [D23R] | 1.99
58 | FCYCAGSHKRKRSSGSFCYCHPPS [D23P] | 2.86
59 | FCYCAGSHKRKRSSGSFCYCHPKS [D23K] | 2.42
60 | FCYCAGEHKRKRSSGSFCYCHPDS [S7E] | 2.2
61 | FCYCAGPHKRKRSSGSFCYCHPDS [S7P] | 1.7
62 | FCYCAGWHKRKRSSGSFCYCHPDS [S7W] | 1.9
63 | FCYCAGSHKRKRSSGFFCYCHPDS [S16F] | 2.41
64 | FCYCAGSHKRKRSSGIFCYCHPDS [S16I] | 2.49
65 | FCYCAGSHKRKRSSGCFCYCHPDS [S16C] | 1.91
66 | FCYCAGSHKRKRSSGRFCYCHPDS [S16R] | 1.59
67 | FCYCAYSHKRKRSSGSFCYCHPDS [G6Y] | 2.59
68 | FCYCAHSHKRKRSSGSFCYCHPDS [G6H] | 1.94
69 | FCYCAESHKRKRSSGSFCYCHPDS [G6E] | 1.86
70 | FCYCAQSHKRKRSSGSFCYCHPDS [G6Q] | 2
71 | FCYCAWSHKRKRSSGSFCYCHPDS [G6W] | 2.84
72 | FCYCAGSHKRKRVSGSFCYCHPDS [S13V] | 1.86

Row | Variant | protein stability index
73 | FCYCAGSHKRKRISGSFCYCHPDS [S13I] | 1.88
74 | FCYAAGSHKRKRSSGSFCYCHPDS [C4A] | 1.29
75 | FCYIAGSHKRKRSSGSFCYCHPDS [C4I] | 1.56
76 | FCYDAGSHKRKRSSGSFCYCHPDS [C4D] | 1.74
77 | FCYCAGSHKRTRSSGSFCYCHPDS [K11T] | 2.22
78 | FCYCAGSHKRWRSSGSFCYCHPDS [K11W] | 2.03
79 | FCYCAGSHKRGRSSGSFCYCHPDS [K11G] | 1.97
80 | FCYCAGSHKRKRSSPSFCYCHPDS [G15P] | 1.6
81 | FCYCAGSHKRKRSSFSFCYCHPDS [G15F] | 1.8
82 | SCYCAGSHKRKRSSGSFCYCHPDS [F1S] | 3.78
83 | DCYCAGSHKRKRSSGSFCYCHPDS [F1D] | 4.2
84 | ACYCAGSHKRKRSSGSFCYCHPDS [F1A] | 4.19
85 | QCYCAGSHKRKRSSGSFCYCHPDS [F1Q] | 3.82
86 | FCYCAGSHKRKRSSGSFCYCSPDS [H21S] | 2.87
87 | FCYCAGSHKRKRSSGSFCYCIPDS [H21I] | 2.69
88 | FCYCAGSHKRKRSSGSFCYCEPDS [H21E] | 2.73
89 | FCYCAGSHKRKRSSGSFCYCQPDS [H21Q] | 2.74
90 | FCYCAGSHKRKRSSGSFCYCHEDS [P22E] | 2.01
91 | FCYCAGSHKRKRSSGSFCYCHGDS [P22G] | 2.44
92 | FCYCAGSHKRKRSSGSFCYCHSDS [P22S] | 2.53
93 | FCYCAGSHKRKRSSGSFCYCHVDS [P22V] | 1.96
94 | FCYCAGSHKRKRSSGSFCYCHADS [P22A] | 2.64
